In the supplement of paper PMC10567573 one finds protein stability index data, which are given here for 73 sequences.

± gives the standard deviation.

This series in a line: protein stability index of a GFP-peptide fusion (GPS, HEK-293T) (PSI 1-6); higher = more stable. The note with it: c terminus: a fixed tail appended.
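Note: 24-mer peptide tiles fused after GFP, lentivirally expressed, FACS-sorted into six equal bins by GFP/DsRed ratio, decoded by Illumina sequencing, PSI is the read-weighted mean bin number.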

The sequence NARLQAMWGQSLLPPVSTSFTTGG [TNXB] came in with a protein stability index (treatment: DMSO) of 2.51 ± 0.29 and a protein stability index (treatment: MLN4924 1 uM, 8 h) of 2.89 ± 0.33.
For NCQSVAQMNLLQKYSLLKLTALLE [DLC1] the same measures were 2.25 ± 0.36 and 2.44 ± 0.11.
Turning to NCSGPAPAAKPDPDGGRADEWACE [P3H4], the protein stability index (treatment: DMSO) worked out at 5.36 ± 0.17 and the protein stability index (treatment: MLN4924 1 uM, 8 h) was 5.44 ± 0.16.
For NDFCSFYNILKTCRGHTLERSVFS [CARM1] the same measures were 2.78 ± 0.6 and 2.4 ± 0.3.
For NDNSSDLLYDDLYDDDIDDEDEEE [UBE2R2] the same measures were 5.61 ± 0.41 and 5.63 ± 0.18.
NEKETMQSLNDRLASYLDRVRSLE [KRT18] returned a protein stability index (treatment: DMSO) of 3.61 ± 0.23 and a protein stability index (treatment: MLN4924 1 uM, 8 h) of 3.54 ± 0.28.
For NFCKEQAARISNKGKFSTDTKGKP [ZC2HC1A] the same measures were 3.78 ± 0.2 and 4.27 ± 0.31.
For NFGFDLLVTYTNRYIIFKRNTLNQ [GMCL1] the same measures were 2.1 ± 0.15 and 2.47 ± 0.56.
For NFQQPGFTSGTGHFTAMVWKNTKK [GLIPR2] the same measures were 3.74 ± 0.32 and 3.95 ± 0.067.
Take NGIGAVLDFTHPKARDWFQGHLRR [MYORG]: the protein stability index runs as follows: (treatment: DMSO) 2.75 ± 0.34; (treatment: MLN4924 1 uM, 8 h) 2.64 ± 0.27.
For NHLNPEVKKSCWTEEEDRIICEAH [MYBL2] the same measures were 4.72 ± 0.1 and 4.81 ± 0.2.
For NIRPSSSGGYWVGMSTIRPNPGFS [APMAP] the same measures were 2.61 ± 1 and 2.65 ± 0.37.
On to NKPREHIIDCGDIVWSLAFGSSVP [WSB1], for which the protein stability index came out at 2.17 ± 0.38 (treatment: DMSO) and 2.07 ± 0.2 (treatment: MLN4924 1 uM, 8 h).
NLAFGRRCEELEDARYKLHHHLHK [TEKT4] had a protein stability index (treatment: DMSO) of 3.2 ± 0.22 and a protein stability index (treatment: MLN4924 1 uM, 8 h) of 3.2 ± 0.16.
For NLFEGMIWFIVPISCVICNDIMAY [CDS2] the same measures were 3.44 ± 0.44 and 3.26 ± 0.74.
For NLPKFCHECGTKYPVEWAKFCCEC [ZC2HC1A] the same measures were 5.275 ± 0.001 and 5.557 ± 0.049.
Turning to NLVSVGYQAGKPDALTKLEQGEPL [ZNF649], the protein stability index reads like this: (treatment: DMSO) 4.39 ± 0.27; (treatment: MLN4924 1 uM, 8 h) 4.17 ± 0.4.
With NQEILLPGGITSHQLLGLFPSTSY [TNXB], the protein stability index worked out at 2.58 ± 0.092 (treatment: DMSO) and 2.53 ± 0.27 (treatment: MLN4924 1 uM, 8 h).
For NRQSSDKQNGRVAKVKGHRSQKHK [C18orf25] the same measures were 4.67 ± 0.18 and 4.55 ± 0.17.
Turning to NSKKEEPQELLQSQDFVGEKLGSG [ATE1], the protein stability index was 5.51 ± 0.11 (treatment: DMSO) and 5.42 ± 0.23 (treatment: MLN4924 1 uM, 8 h).
For NSLEMTPAVRQRVIEEAKTAFLLN [HMOX1] the same measures were 3.67 ± 0.2 and 3.63 ± 0.31.
As to NSSGDIGKKEIKPFKRFLRKKSKP [SMOC2], the protein stability index is 4.15 ± 0.4 (treatment: DMSO) and 4.19 ± 0.68 (treatment: MLN4924 1 uM, 8 h).
For NTHVSQVFNLFRTMGLRHLPVVNA [CLCN6] the same measures were 2.57 ± 0.39 and 2.12 ± 0.15.
Take NVTELLRDVAAWGRARATGGDLEE [DNAAF3]: the protein stability index was found to be 3.63 ± 0.15 (treatment: DMSO) and 3.75 ± 0.31 (treatment: MLN4924 1 uM, 8 h).
Sequence NWLIKYDCPMDSSSSRDTDWVVVK [PI4K2A] showed a protein stability index (treatment: DMSO) of 2.83 ± 0.77 and a protein stability index (treatment: MLN4924 1 uM, 8 h) of 3.1 ± 0.17.
Regarding NWPKNSNGVTQKASAPTYPSLYSS [NANOGP8], the protein stability index runs as follows: (treatment: DMSO) 3.53 ± 0.21; (treatment: MLN4924 1 uM, 8 h) 3.65 ± 0.25.
For PADSAQLLSLNSLLPESGIVADIE [TFE3], the protein stability index is, setting by setting: (treatment: DMSO) 4.93 ± 0.19; (treatment: MLN4924 1 uM, 8 h) 5.1 ± 0.19.
For PAQVHSSLSAGEKPGFLAPRDLPK [RASAL3] the same measures were 4.63 ± 0.34 and 4.77 ± 0.41.
Turning to PARDYVVLRTWRTNLPKGACALLL [DLC1], the protein stability index runs as follows: (treatment: DMSO) 2.47 ± 1.3; (treatment: MLN4924 1 uM, 8 h) 2.22 ± 0.4.
Consider PDHFDTAILFTRQDLCGVSTCDTL [ADAMTS4], for which the protein stability index by setting is: (treatment: DMSO) 2.83 ± 0.21; (treatment: MLN4924 1 uM, 8 h) 2.94 ± 0.4.
Consider PDPSVWSRRYTEMALPFFSLAEVR [MYORG], for which the protein stability index runs as follows: (treatment: DMSO) 2.52 ± 0.31; (treatment: MLN4924 1 uM, 8 h) 2.45 ± 0.13.
For PDTGDNARLTYSIVGNQVQGAPAS [PCDHGC5] the same measures were 4.42 ± 0.37 and 4.52 ± 0.52.
For PEFDYLKSLEIEEKINKIKWLPQQ [PPP2R2C] the same measures were 3.52 ± 0.23 and 3.58 ± 0.2.
PERRRSPGPAPGSPGELEEDLLLP [WEE1]: the protein stability index was 5.33 ± 0.28 (treatment: DMSO) and 5.37 ± 0.38 (treatment: MLN4924 1 uM, 8 h).
On to PETFWIQRAPQLPTWWPLPTQVPA [SPAG8], for which the protein stability index is 2.42 ± 0.19 (treatment: DMSO) and 2.52 ± 0.15 (treatment: MLN4924 1 uM, 8 h).
For PETLTNLRKGYLFMYNLVQFLGFS [HACD3] the same measures were 2.34 ± 0.56 and 2.04 ± 0.34.
For PGDPSKDRAAKRLSLESEGAGEGA [TPPP] the same measures were 5.47 ± 0.22 and 5.33 ± 0.38.
For PGEDENPEKASELSQVELQAAPGA [TRIM55] the same measures were 5.56 ± 0.27 and 5.72 ± 0.2.
Turning to PGPDTGPDSELSPCIPPGFRNLVA [SPAG8], the protein stability index by setting is: (treatment: DMSO) 3.79 ± 0.27; (treatment: MLN4924 1 uM, 8 h) 3.94 ± 0.17.
PHAMTIQELVDYVNARQKQGIYEE [PTPN9]: the protein stability index (treatment: DMSO) turned out to be 3.23 ± 0.21 and the protein stability index (treatment: MLN4924 1 uM, 8 h) came out at 3.25 ± 0.41.
For PHTPQTPGQGGPASTPAQTAAGGQ [NR2F2] the same measures were 5.3 ± 0.18 and 5.27 ± 0.23.
For PHVIVSTTGPNPFTTLTDRELEEY [ADD1] the same measures were 4.83 ± 0.17 and 4.91 ± 0.091.
For the sequence PIPVVFVLRHFHLLSDGSNTLSVS [SLC6A17], the protein stability index by setting is: (treatment: DMSO) 2.83 ± 0.81; (treatment: MLN4924 1 uM, 8 h) 2.84 ± 0.47.
For PKRMPSGRGGRDRFTAESYTVLGD [FSD1] the same measures were 4.11 ± 0.33 and 4.3 ± 0.22.
For PLCMLLLIDHLALRARNYEYLIRL [TCF25] the same measures were 3.43 ± 1.1 and 2.92 ± 0.55.
For PLHLAAQRGHYRVARILIDLCSDV [RIPK4] the same measures were 2.42 ± 0.44 and 2.31 ± 0.19.
In turn, PLHLSALRDDVLCARMLYNYGADT [ASB7] came in with a protein stability index (treatment: DMSO) of 2.27 ± 0.15 and a protein stability index (treatment: MLN4924 1 uM, 8 h) of 2.48 ± 0.38.
Turning to PLHVHEEEGILVAVGQDCYTRIWS [DCAF4], the protein stability index (treatment: DMSO) stood at 2.67 ± 0.3 and the protein stability index (treatment: MLN4924 1 uM, 8 h) is 2.74 ± 0.43.
For PLQLLREMRQALQALLKENRLLQE [CBY2] the same measures were 2.93 ± 0.28 and 3.4 ± 0.51.
For PLSPIQASSVHLKSESSLPHQTSK the same measures were 5.02 ± 0.19 and 5.05 ± 0.088.
Regarding PLTGFLTTVPDGPTQLRALNLTEG [TNXB], the protein stability index was 3.81 ± 0.26 (treatment: DMSO) and 3.55 ± 0.22 (treatment: MLN4924 1 uM, 8 h).
For PPAELKAEPGFEPADCKRKEEAGA [CEBPB] the same measures were 5.55 ± 0.23 and 5.68 ± 0.13.
With PPDRTLGCWATDAAPAAGLCGAGS [RSPH3], the protein stability index (treatment: DMSO) was 3.79 ± 0.15 and the protein stability index (treatment: MLN4924 1 uM, 8 h) came out at 3.71 ± 0.32.
For PPETTETPKCSSPRGQEGSRQDKP [YJU2B] the same measures were 5.5 ± 0.36 and 5.54 ± 0.26.
For PPLPLHPGGDQGGPPVGPLSLGLA [WAS], the protein stability index by setting is: (treatment: DMSO) 4.26 ± 0.25; (treatment: MLN4924 1 uM, 8 h) 4.45 ± 0.15.
Take PPMTQAQAVSAPGILNRPPAPTAT [ZNF207]: the protein stability index by setting is: (treatment: DMSO) 5.01 ± 0.18; (treatment: MLN4924 1 uM, 8 h) 5.09 ± 0.21.
For PPPARGRGAPPPPPSRAPTAAPPP [WASL] the same measures were 5.26 ± 0.11 and 5.14 ± 0.21.
PPPGSLSRTQEPSLGKQKVFIIRK [SOAT2]: the protein stability index was 3.51 ± 0.17 (treatment: DMSO) and 3.73 ± 0.17 (treatment: MLN4924 1 uM, 8 h).
Take PPTSGCLGPVPREDQAEAWGCSCC [TSPAN10]: the protein stability index is, setting by setting: (treatment: DMSO) 4.8 ± 0.3; (treatment: MLN4924 1 uM, 8 h) 4.74 ± 0.24.
Turning to PQDYKKRLSVELTSSLFRTEPMAW [CTNNB1], the protein stability index was determined as 2.67 ± 0.24 (treatment: DMSO) and 2.8 ± 0.21 (treatment: MLN4924 1 uM, 8 h).
Turning to PQFLHEGLSKPVYVINWFMSFGPE [FAM104B], the protein stability index (treatment: DMSO) is 2.68 ± 0.71 and the protein stability index (treatment: MLN4924 1 uM, 8 h) was 2.97 ± 1.2.
For PQGPPASPSCPEEALAATWEQPWA [PXN] the same measures were 4.15 ± 0.39 and 3.96 ± 0.27.
Consider PQPPDAPQLVSSAREGSSEPWLPL [PLEKHN1], for which the protein stability index by setting is: (treatment: DMSO) 4.36 ± 0.25; (treatment: MLN4924 1 uM, 8 h) 4.56 ± 0.1.
On to PQQPVMFAQPMMRPPFGAAAVPGT [SNAP91], for which the protein stability index is, setting by setting: (treatment: DMSO) 3.75 ± 0.16; (treatment: MLN4924 1 uM, 8 h) 3.76 ± 0.3.
For PQTPEPVEGRKHVDVQTELYLEEI [RSPH3] the same measures were 3.78 ± 0.24 and 4 ± 0.58.
For PREDGASVNDQCGFGVLRLDADAA [TSPAN10] the same measures were 4.38 ± 0.31 and 4.15 ± 0.17.
For PRLQQLLKTLEEGLEGLEDAPPVE [FANCE] the same measures were 4.41 ± 0.16 and 4.34 ± 0.3.
For PRNADKIRVKIADLGNACWVHKHF [SRPK2], the protein stability index (treatment: DMSO) stood at 2.26 ± 0.12 and the protein stability index (treatment: MLN4924 1 uM, 8 h) turned out to be 2.42 ± 1.3.
With PRPGTGQSRSFRILAHLTGTEFMQ [PDLIM7], the protein stability index by setting is: (treatment: DMSO) 2.47 ± 0.046; (treatment: MLN4924 1 uM, 8 h) 2.83 ± 0.27.
For PSALVPSVTEYRLDGHTISDLSRS [MYBL2], the protein stability index reads like this: (treatment: DMSO) 4.25 ± 0.2; (treatment: MLN4924 1 uM, 8 h) 4.25 ± 0.39.
For PSCLACNRQCLCSAESMVEYGTCM [SPRY1], the protein stability index amounted to 2.84 ± 0.58 (treatment: DMSO) and 2.84 ± 0.48 (treatment: MLN4924 1 uM, 8 h).
In the case of PSEICDRLVNEYVELVNAACNFEP [ZER1], the protein stability index by setting is: (treatment: DMSO) 3.15 ± 0.3; (treatment: MLN4924 1 uM, 8 h) 3.17 ± 0.23.
For PTPVGAVQQDPALSSNREAHQHRD [CSNK1G3] the same measures were 5.37 ± 0.21 and 5.41 ± 0.19.
